{"source": "patent US20220151976A1", "about": "(UNIVERSITY OF TOLEDO, published 2022)", "binders": {"B1": {"name": "LIM and SH3 Protein 1 (LASP1), endogenous in 231S cells (other, human, UniProt Q14847 1-261, looked up)", "chain": "MNPNCARCGKIVYPTEKVNCLDKFWHKACFHCETCKMTLNMKNYKGYEKKPYCNAHYPKQSFTMVADTPENLRLKQQSELQSQVRYKEEFEKNKGKGFSVVADTPELQRIKKTQDQISNIKYHEEFEKSRMGPSGGEGMEPERRDSQDGSSYRRPLEQQQPHHIPTSAPVYQQPQQQPVAQSYGGYKEPAAPVSIQRSAPGGGGKRYRAVYDYSAADEDEVSFQDGDTIVNVQQIDDGWMYGTVERTGDTGMLPANYVEAI", "notes": "Endogenous intracellular protein; detected or immunoprecipitated with mouse LASP1 antibody 8C6 (Biolegend 909301); also called endogenous LASP1"}}, "key": {"[1]": {"target": "eIF4E, endogenous in 231S cells (human) (UniProt P06730)", "sequence (P06730 2-217 limits assumed)": "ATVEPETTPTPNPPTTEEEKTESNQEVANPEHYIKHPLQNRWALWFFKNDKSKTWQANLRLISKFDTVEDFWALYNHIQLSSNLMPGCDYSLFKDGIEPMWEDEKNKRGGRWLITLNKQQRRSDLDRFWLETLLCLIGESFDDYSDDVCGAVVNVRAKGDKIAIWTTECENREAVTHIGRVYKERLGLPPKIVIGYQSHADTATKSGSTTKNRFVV", "assay": "m7GTP pulldown from 231S lysate after CXCL12, LASP1/eIF4E densitometry against 0 min; association may be through the complex"}, "[2]": {"target": "T1, Eukaryotic initiation factor 4A (eIF4A1), endogenous in 231S cells (human, UniProt P60842 2-406)", "T1 construct": "Endogenous intracellular protein; eIF4A1 antibody (Cohesion CQA1180) used in PLA and IP, eIF4A C32B4 in Western blots", "T1 sequence (P60842 2-406 limits assumed)": "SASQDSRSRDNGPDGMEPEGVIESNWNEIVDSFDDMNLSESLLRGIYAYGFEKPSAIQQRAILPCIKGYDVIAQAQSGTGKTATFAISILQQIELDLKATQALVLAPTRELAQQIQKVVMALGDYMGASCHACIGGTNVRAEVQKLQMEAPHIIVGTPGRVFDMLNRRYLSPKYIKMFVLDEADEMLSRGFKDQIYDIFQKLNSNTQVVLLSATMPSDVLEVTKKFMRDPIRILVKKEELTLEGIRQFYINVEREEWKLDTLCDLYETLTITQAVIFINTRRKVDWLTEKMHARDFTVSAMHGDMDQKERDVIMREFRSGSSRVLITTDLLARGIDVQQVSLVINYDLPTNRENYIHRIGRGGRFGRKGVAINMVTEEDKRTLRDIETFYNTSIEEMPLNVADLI", "assay": "proximity ligation assay in 231S cells, CXCL12 5 min against unstimulated", "description": "100 nM AMD3465 was added 30 min prior to stimulation. […] Representative images of the PLA experiment are provided. Quantification indicates the average number of interactions/cell across multiple independent fields."}, "[3]": {"target": "T1, Eukaryotic initiation factor 4A …", "assay": "reciprocal co-immunoprecipitation (LASP1 IP, eIF4A blot) from 231S lysate, densitometry against 0 min", "description": "(§1) 1 mg of total protein lysate was employed in all immunoprecipitation reactions. eIF4B was immunoprecipitated by using 2 μg of eIF4B antibody (Cell Signaling Technology, Danvers, Mass., Cat. No. 13088). Mouse (G3A1) mAb IgG1 Isotype Control (Cell Signaling Technology, Danvers, Mass., Cat. No. 5415) served as the mock control. Next, eIF4A was immunoprecipitated using 2 μg of eIF4A1 antibody (Cohesion Biosciences, London, Purley, Cat. No. CQA1180). His-Tag (D3L10) XP® Rabbit mAb (Cell Signaling Technology, Danvers, Mass., Cat. No. 12698) was employed for the mock condition. […] As in the eIF4B Co-IP, mouse (G3A1) IgG1 isotype mAb was employed as the mock control. Prior to immunoprecipitation, lysates were pre-cleared with 20 μL of PureProteome™ Protein G Magnetic Beads (Millipore, Billerica, Mass., Cat. No. LSKMAGG10) for 2 H at 4° C. Immunoprecipitation reactions were then allowed to proceed with 20 μL of protein G magnetic beads and the appropriate amount of antibody for 2 h at 4° C. Beads were washed thrice with Co-IP buffer. To avoid heavy chain contamination (55 kDa) in the eIF4A Co-IP, antibodies were cross-linked using BS³ (according to Millipore recommendations). Proteins of interest were analyzed by sodium dodecyl sulfate-polyacrylamide gel electrophoresis (SDS-PAGE) and Western blotting."}, "[4]": {"target": "T2, Eukaryotic initiation factor 4B (eIF4B), endogenous in 231S cells (human, UniProt P23588 1-611)", "T2 construct": "Endogenous protein in lysate", "T2 sequence (P23588 whole entry)": "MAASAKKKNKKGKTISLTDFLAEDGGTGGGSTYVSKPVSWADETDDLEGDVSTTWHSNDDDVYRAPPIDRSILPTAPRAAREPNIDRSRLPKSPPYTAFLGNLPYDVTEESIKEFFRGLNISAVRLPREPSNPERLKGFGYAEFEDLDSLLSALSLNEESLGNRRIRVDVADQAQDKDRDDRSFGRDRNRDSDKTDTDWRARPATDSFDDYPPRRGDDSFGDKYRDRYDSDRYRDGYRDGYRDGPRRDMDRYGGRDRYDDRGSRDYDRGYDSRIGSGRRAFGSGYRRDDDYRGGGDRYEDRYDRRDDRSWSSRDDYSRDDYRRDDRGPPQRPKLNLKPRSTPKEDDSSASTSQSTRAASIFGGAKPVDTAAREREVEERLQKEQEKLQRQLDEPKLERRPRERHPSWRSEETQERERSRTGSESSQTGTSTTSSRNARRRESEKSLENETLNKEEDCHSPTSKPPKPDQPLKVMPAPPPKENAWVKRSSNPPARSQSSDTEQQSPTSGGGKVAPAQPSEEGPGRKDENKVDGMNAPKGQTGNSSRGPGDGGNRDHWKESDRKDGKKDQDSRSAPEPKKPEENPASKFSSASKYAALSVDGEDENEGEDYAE", "assay": "reciprocal co-immunoprecipitation (LASP1 IP, eIF4B blot) from 231S lysate, densitometry against 0 min", "description": "as §1"}}}
{"binder": "B1", "values": [{"measurement": "fold increase in association", "setting": "[1]", "result": 2.2, "unit": "fold"}, {"measurement": "fold stimulation of the interaction", "setting": "[2]", "result": 3, "unit": "fold"}, {"measurement": "fold increase in association", "setting": "[3]", "result": 19.1, "unit": "fold"}, {"measurement": "fold increase in association", "setting": "[4]", "result": 7.5, "unit": "fold"}]}
